From publication PMC11844185 (Journal of Translational Medicine, 2025)

Assays:
[1] = biological target: T1, SARS-CoV-2 prototype RBD-His tag protein (Severe acute respiratory syndrome …, UniProt P0DTC2); assay: cell-based or functional assay
[2] = biological target: T1, SARS-CoV-2 prototype RBD-His tag protein; assay: SPR

B1: SWA9 (antibody, V domains shown)
VH: QMQLVQSGPEVKKPGTSVKVSCKASGFTFTNSAMQWVRQARGQRLEWVGWIVVASGNANSARRFHDRVTITSDMSTSTAYLELSSLRSEDTAVYYCALNHCSNTTCLDGFDIWGQGTMVSVSS
VL: EIVLTQSPVTLSLSPGERATLSCRASQSVRNSLLAWYQQKPGQAPRLLIYAASSRATGIPDRFSGSGSGTDFTLTISRLEPEDFVVYYCQQHGSSPPWTFGQGTKVEFK
[1]
  neutralisation of SARS-CoV-2 prototype pseudovirus, IC50: < 0.1 µg/mL
[2]
  Kd: 0.345 nM

B2: SWC11 (antibody, V domains shown)
VH: EVQLVESGGGLIQPGGSLRLSCAASEFIVSRNYMSWVRQAPGTGLEWVSVIYPGGSTFYADSVKGRFTISRDNSKNTLYLQMDSLRVEDTAVYYCARDYGDFYFDYWGQGTLVTVSS
VL: EIVMTQSPVSLSVSPGERATLSCRASQGVASNLAWYQQKAGQAPRLLIYGASTRATGIPARFSGSGSGTEFTLTISTLQSEDSAVYYCQQYNDRPRTFGQGTKLEIK
[1]
  neutralisation of SARS-CoV-2 prototype pseudovirus, IC50: < 0.1 µg/mL
[2]
  Kd: 0.627 nM

B3: 2YYQH9 (antibody, V domains shown)
VH: EVQLVESGGGLIQPGGSLRLSCAASGVTVIRNYMTWVRQAPGKGLEWVSVIYPGGTTYYADSVKGRFTISRDSSKNTLYLQMNSLRAEDAAVYFCARAYGDYYFDLWGQGTLLTVSS
VL: EMVMTQSPASLSLSPGERATLSCRASQGVDSSYLAWYQQKPGQAPRLLMYGASSRATGIPDRFSGSGYGTDFTLTISRVEPEDFAVYYCQVAFTFGQGTKVEIK
[1]
  neutralisation of SARS-CoV-2 prototype pseudovirus, IC50: < 0.1 µg/mL
[2]
  Kd: 0.428 nM
